The values that follow come from paper PMC7418079.

The assay concerns the target Enterovirus D68 virion, B1 clade isolate US/MO/14–18947 (Enterovirus D68).

B1: mAb EV68–159 (antibody, V domains shown)
VH: EVQLVESGGGLVKPGGLRLSCAASGFTFSTYIMTWVRQAPGRGLEWVSSISTSSVYTFYADSLKGRFTISRDNAKNSVYLQMNSLRADDTAVYYCAREEGFRAYNLYWGQGTLVTVSS
VL: QSVLTQPPSASGTPGQRVTISCSGSSSNIEYNYVYWYQKFPGTAPKLLIYKNNQRPSGVPDRFSGSKSGTSASLAISGLRSEDEGDYYCAAWDDILSGVVFGGGTKLTVL
B1: the IC50 of neutralisation of a B1 clade EV-D68 isolate, CCID50 assay on RD cells is 0.32 ng/mL.
